{
  "source": "paper PMC5057313",
  "target": "Arabidopsis ferredoxin : thioredoxin reductase catalytic subunit (AtFTRc), prey in pGADT7 (Arabidopsis thaliana) (UniProt Q9SJ89)",
  "sequence (Q9SJ89 whole entry)": "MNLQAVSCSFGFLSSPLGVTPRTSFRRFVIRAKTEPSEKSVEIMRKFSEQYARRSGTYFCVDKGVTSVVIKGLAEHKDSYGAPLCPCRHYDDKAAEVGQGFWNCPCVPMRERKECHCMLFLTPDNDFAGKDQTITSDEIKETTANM",
  "data": [
    {"substance": "MjTTL5 (transthyretin-like protein 5 of Meloidogyne javanica), bait in pGBKT7 (natural protein)", "values": [
      {"measurement": "H2O2 consumption of wild-type Arabidopsis protein with MjTTL5 against the MjTTL5-free treatment (only 1.8-fold in the AtFTRc mutants; Fig. S16c)", "value": 2.5, "unit": "fold"}
    ]}
  ]
}
